Laboratory results taken from publication PMC4559766 (Scientific Reports, 2015).

Assays:
[1] = molecular target: T1, Recombinant human TNFRI, disulfide-linked homodimer (human, UniProt P19438 30-455); assay: SPR; BIAcore 3000; peptide serially diluted and injected; KD by BIAcore kinetic evaluation Ver. 4.1; method by refs 48, 49; conditions: both partners purified
Human serum albumin [2] = molecular target: T2, Human serum albumin (human, UniProt P02768 25-609); assay: as above; conditions: both partners purified
T2 construct: serum albumin, human; also called HSA; source: bought: Sigma

Mouse serum albumin [3] = molecular target: T3, Mouse serum albumin (mouse, UniProt P07724 25-608); assay: as above; conditions: both partners purified
T3 construct: serum albumin, mouse; also called MSA; source: bought: Sigma
T3 sequence (P07724 25-608): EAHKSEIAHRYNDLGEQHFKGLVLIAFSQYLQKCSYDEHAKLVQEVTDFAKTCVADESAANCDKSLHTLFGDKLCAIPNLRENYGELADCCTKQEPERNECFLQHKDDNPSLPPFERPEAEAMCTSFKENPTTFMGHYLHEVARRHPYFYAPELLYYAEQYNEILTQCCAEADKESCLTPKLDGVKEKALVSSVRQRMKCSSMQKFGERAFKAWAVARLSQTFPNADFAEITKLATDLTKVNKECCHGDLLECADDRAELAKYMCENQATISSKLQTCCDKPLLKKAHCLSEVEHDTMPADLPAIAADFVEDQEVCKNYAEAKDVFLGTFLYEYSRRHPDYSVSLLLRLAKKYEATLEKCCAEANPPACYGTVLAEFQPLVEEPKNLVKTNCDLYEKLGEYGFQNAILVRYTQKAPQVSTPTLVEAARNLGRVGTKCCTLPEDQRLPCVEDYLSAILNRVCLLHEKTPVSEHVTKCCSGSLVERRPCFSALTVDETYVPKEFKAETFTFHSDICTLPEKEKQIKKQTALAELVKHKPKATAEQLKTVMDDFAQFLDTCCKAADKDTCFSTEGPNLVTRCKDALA

[4] = molecular target: T1, Recombinant human TNFRI, …; assay: ITC; VP-ITC calorimeter; peptide serially diluted and injected; KD by Microcal ORIGIN Ver. 5.0; method by refs 48, 49; conditions: both partners purified
Human serum albumin [5] = molecular target: T2, Human serum albumin; assay: as above; conditions: both partners purified
Mouse serum albumin [6] = molecular target: T3, Mouse serum albumin; assay: as above; conditions: both partners purified
[7] = molecular target: T4, Human TNFRI of ML-la cells (human, UniProt P19438 30-455); assay: radioligand binding; competition: ML-la cells (1 × 10^6 cells/well) preincubated with anti-p60 or anti-p80 antibody (25 °C, 30 min) to block TNFRI or TNFRII, then 125I-labeled TNF α with unlabeled TNF α or RMP16 (10^-11 to 10^-5 M) in RPMI 1640 with 10% fetal calf serum, 25 °C, 1 h; cell-bound radioactivity counted; conditions: one partner purified
T4 construct: also called p60; source: endogenous, on ML-la cells (human myelomonoblastic leukemia cell line)
T4 sequence (looked up): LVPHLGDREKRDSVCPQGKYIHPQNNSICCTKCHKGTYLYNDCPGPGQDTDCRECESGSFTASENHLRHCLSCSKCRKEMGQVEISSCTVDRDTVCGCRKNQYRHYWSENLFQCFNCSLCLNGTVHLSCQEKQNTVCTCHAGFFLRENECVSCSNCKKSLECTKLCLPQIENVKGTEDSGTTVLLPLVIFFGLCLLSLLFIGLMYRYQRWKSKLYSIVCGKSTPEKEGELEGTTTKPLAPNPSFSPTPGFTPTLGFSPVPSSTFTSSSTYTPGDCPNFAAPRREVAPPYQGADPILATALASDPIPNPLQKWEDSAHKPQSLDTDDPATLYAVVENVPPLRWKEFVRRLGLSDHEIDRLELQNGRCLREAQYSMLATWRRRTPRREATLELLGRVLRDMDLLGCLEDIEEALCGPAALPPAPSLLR

Human serum albumin [8] = molecular target: T2, Human serum albumin; assay: cell-based or functional assay

Kd [1]: 21.3 nM | Kd (Human serum albumin [2]): 875 nM | Kd (Mouse serum albumin [3]): 925 nM | Kd [4]: 20.4 nM | Kd (Human serum albumin [5]): 822 nM | Kd (Mouse serum albumin [6]): 894 nM | IC50 [7]: 15.1 nM | in vitro Factor Xa enzyme digestion half-life of RMP16 (10 μM) in the presence of HSA (2 μM), against 9.72 h without HSA (Human serum albumin [8]): 15.8 h
B1: RMP16, recombinant TNF α-derived polypeptide (peptide)
chain: MWQRPSSWIEGRLLTHTISRIAVSYQTKVNLL
notes: P16, TNF α segment of amino acid residues 75-94, human; also called recombinant peptide RMP16
